Measured values from patent US7252997.

Tests used:
[1] = target: AAV2 capsid mutant I-587 (P1 peptide inserted after amino acid 587, VP1 numbering) (adeno-associated virus serotype 2 (AAV2)) (UniProt P03135); experiment: capsid ELISA with A20 MAb on purified virus stock
[2] = target: Wild-type AAV2 capsid (adeno-associated virus serotype 2 (AAV2)) (UniProt P03135); experiment: capsid ELISA with A20 MAb on purified virus stock

**Q.** Which results are given for A20 monoclonal antibody?
**A.** titer with A20 capsid ELISA [1]: 3e+12 particles/ml; titer with A20 capsid ELISA [2]: 6e+12 particles/ml
